Reference: the supplement of paper PMC7125110
± gives the standard error. Fewer inactive variants are shown than the library holds.

B1: glmS ribozyme (parent)
chain: AUAAAAGCGCCAGAACUACAGAAAUGUAGUUGACGAGGAGGAGGUUUAUCGAAUUUUCGGCGGAUGCCUCCAAA

Variants of: B1
Experiment: self-cleavage kobs at 2500 uM GlcN6P; higher = faster cleavage; RNA array
Details: with glucosamine-6-phosphate
Procedure, shortened: (§1)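 A hybridised Cy3 probe tracked barcoded ribozyme variants, transcribed in situ by E. coli RNA polymerase on sequenced MiSeq chips, at 37 °C. The variants received 40 μM to 10 mM glucosamine-6-phosphate in HEPES/KCl/Mg(OAc)2 buffer. kobs came from decay fits and kcat and KM from weighted Michaelis–Menten fits.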

Point of comparison: C11U A12G U56C, “self-cleavage kobs at 2500 uM GlcN6P” value 0.000115 ± 2.6e-05 s⁻¹. Against it:
- C8G C16G U56A — lower, < 1e-05 s⁻¹
- G7U A14C C16A — lower, < 1e-05 s⁻¹
- C8U G13U G59U — lower, < 1e-05 s⁻¹
- G7A G51U U54G — lower, < 1e-05 s⁻¹
- A12C A36G A42U U45A G51U — lower, < 1e-05 s⁻¹
- G9C C10A G32A — lower, < 1e-05 s⁻¹
- C11A G29U C58A — lower, < 1e-05 s⁻¹
- C10U A12G A15G G29C C34A — lower, < 1e-05 s⁻¹
- G9C A14G U69G — lower, < 1e-05 s⁻¹
- G9A U56G G60A — lower, < 1e-05 s⁻¹
- A6U U31A G37C U54A — lower, < 1e-05 s⁻¹
- G9A A36U A53G — lower, < 1e-05 s⁻¹
- G7U C16U A36G G37U G41U C61A — lower, < 1e-05 s⁻¹
- A12C U31C U54A C67A — 1.8-fold lower, 6.33e-05 ± 2e-05 s⁻¹
- G9U G41A C67U — lower, < 1e-05 s⁻¹
- C10G G41U G59C G60C — lower, < 1e-05 s⁻¹
- C8A C50U A64U — lower, < 1e-05 s⁻¹
- G7A C10G G37U — lower, < 1e-05 s⁻¹
- C10U A33U G40C C50U — lower, < 1e-05 s⁻¹
- C11G G35A G40A — lower, < 1e-05 s⁻¹
- G9A A33G G43C — lower, < 1e-05 s⁻¹
- C10A A64C C67G — within error, 8.61e-05 ± 3.1e-05 s⁻¹
- G7A G41C U45C U47C — lower, < 1e-05 s⁻¹
- G7A U49A A52C — lower, < 1e-05 s⁻¹
- G9U U31G G44U C61U — lower, < 1e-05 s⁻¹
- C8U G32C C70U — lower, < 1e-05 s⁻¹
- C11G A15C U45C C68G — lower, < 1e-05 s⁻¹
- C10G C34A G37A G60U — lower, < 1e-05 s⁻¹
- G7A G13A C68A — lower, < 1e-05 s⁻¹
- C8A A14G C68U C70G — lower, < 1e-05 s⁻¹
- G9A U31C A52U — lower, < 1e-05 s⁻¹
- C8A G35A G38A A53G — lower, < 1e-05 s⁻¹
- C10G G32U G62U U65G — lower, < 1e-05 s⁻¹
- C11U G29C U31A — lower, < 1e-05 s⁻¹
- C10U G51C C58G — lower, < 1e-05 s⁻¹
- C11A A15U G44C — lower, < 1e-05 s⁻¹
- G9U G35U G37C G51C — lower, < 1e-05 s⁻¹
- G7C G9C C61G G62U — lower, < 1e-05 s⁻¹
- C11G G13A G44A — lower, < 1e-05 s⁻¹
- C8U A33G A64U — lower, < 1e-05 s⁻¹
- C8U G43U G62C C68U — lower, < 1e-05 s⁻¹
- C11A U65G C70G C71A — within error, 0.000187 ± 6.3e-05 s⁻¹
- C10A C11A A39C — lower, < 1e-05 s⁻¹
- G9C G59C G63U — lower, < 1e-05 s⁻¹
- A12G A39C A42U — 3.7-fold lower, 3.14e-05 ± 1.5e-05 s⁻¹
- C10A G38C C58G — lower, < 1e-05 s⁻¹
- G7U C8U G32U C50U — lower, < 1e-05 s⁻¹
- A6U C50U C68G C71A — within error, 8.39e-05 ± 3e-05 s⁻¹
- C8G A12U C16U G43U — lower, < 1e-05 s⁻¹
- C11A C34A C58U C61G G62A — lower, < 1e-05 s⁻¹
- A6U U31C C50A U56G — lower, < 1e-05 s⁻¹
- C10A G13U A36U U55C C67U — lower, < 1e-05 s⁻¹
- C11U U54C G66U — within error, 9.68e-05 ± 3.4e-05 s⁻¹
- C8G A39C C58U — lower, < 1e-05 s⁻¹
- A12G A33C G37C G40C — lower, < 1e-05 s⁻¹
- C10G G60C C61A — lower, < 1e-05 s⁻¹
- G7U G9U U47A — lower, < 1e-05 s⁻¹
- C10U A42C G62A U65G C68U — lower, < 1e-05 s⁻¹
- C8G A12G U54G A64C U65A C71G — lower, < 1e-05 s⁻¹
- C8A C34G G66C — lower, < 1e-05 s⁻¹
- C8G G59C A64G — lower, < 1e-05 s⁻¹
- G7A C10A A48G — lower, < 1e-05 s⁻¹
- G7C C11G G37U C58U — lower, < 1e-05 s⁻¹
- C10A G59C G66A C67A — lower, < 1e-05 s⁻¹
- C8A G29U C68G — lower, < 1e-05 s⁻¹
- A12C U31A U47C C67U — 2.2-fold lower, 5.13e-05 ± 2.1e-05 s⁻¹
- G7U A52U U55C — lower, < 1e-05 s⁻¹
- A6U C34A G44A — lower, < 1e-05 s⁻¹
- G7A C67A U69A — lower, < 1e-05 s⁻¹
- C10U G40A A52C G60U — lower, < 1e-05 s⁻¹
- C11U G35C U47G G63A — lower, < 1e-05 s⁻¹
- C11U A48C G62U — lower, < 1e-05 s⁻¹
- G9C C16G A39G — lower, < 1e-05 s⁻¹
- G9U U54C G63C — lower, < 1e-05 s⁻¹
- C8A C10U G32A A48G — lower, < 1e-05 s⁻¹
- C10U A53G G66U C68G — 2.6-fold lower, 4.34e-05 ± 1.4e-05 s⁻¹
- A12C U56G A64C — 1.7-fold lower, 6.67e-05 ± 2.1e-05 s⁻¹
- A6U G9C A33C C50G A52C U56C C68A C71U — lower, < 1e-05 s⁻¹
- A6U G44U G63C — lower, < 1e-05 s⁻¹
- G9U A12C A14C A48G U49A — lower, < 1e-05 s⁻¹

Variants of: B1
Experiment: self-cleavage kobs at 10000 uM GlcN6P; higher = faster cleavage; RNA array
Details: with glucosamine-6-phosphate
Procedure, shortened: as §1

G9A U31C A52U and G9C G59C G63U cannot be ordered by “self-cleavage kobs at 10000 uM GlcN6P” value: less than 1e-05 s⁻¹ for the first, less than 1e-05 s⁻¹ for the second.

G7C C11G G37U C58U and C8A G29U C68G cannot be ordered by “self-cleavage kobs at 10000 uM GlcN6P” value: less than 1e-05 s⁻¹ for the first, less than 1e-05 s⁻¹ for the second.

G7U A52U U55C and A6U G9C A33C C50G A52C U56C C68A C71U cannot be ordered by “self-cleavage kobs at 10000 uM GlcN6P” value: less than 1e-05 s⁻¹ for the first, less than 1e-05 s⁻¹ for the second.
